From patent publication US20240000957A1 (published 2024)

Assays:
Assay in all cases: SPR
Human EphA6 Fc fusion = target: T1, Human EphA6 Fc fusion (Human, UniProt Q9UF33 23-550, limits assumed)
T1 construct: SPR; R&D Systems 5606-A6
T1 sequence (looked up): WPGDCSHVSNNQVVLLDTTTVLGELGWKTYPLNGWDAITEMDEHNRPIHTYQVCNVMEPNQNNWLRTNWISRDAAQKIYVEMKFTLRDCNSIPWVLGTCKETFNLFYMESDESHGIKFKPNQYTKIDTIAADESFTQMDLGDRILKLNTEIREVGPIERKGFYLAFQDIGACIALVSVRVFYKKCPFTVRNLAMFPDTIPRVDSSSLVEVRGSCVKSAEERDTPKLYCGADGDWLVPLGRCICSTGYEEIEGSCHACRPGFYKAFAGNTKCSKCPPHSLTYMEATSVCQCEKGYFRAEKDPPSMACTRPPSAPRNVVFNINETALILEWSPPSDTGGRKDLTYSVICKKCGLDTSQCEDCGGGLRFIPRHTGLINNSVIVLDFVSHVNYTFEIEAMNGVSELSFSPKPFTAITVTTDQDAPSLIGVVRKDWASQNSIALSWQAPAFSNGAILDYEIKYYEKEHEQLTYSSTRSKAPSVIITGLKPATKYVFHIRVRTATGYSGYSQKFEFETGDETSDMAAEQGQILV

Human EphA3 Fc fusion = target: T2, Human EphA3 Fc fusion (Human, UniProt P29320 21-541, limits assumed)
T2 construct: SPR; R&D Systems 6444-A3
T2 sequence (looked up): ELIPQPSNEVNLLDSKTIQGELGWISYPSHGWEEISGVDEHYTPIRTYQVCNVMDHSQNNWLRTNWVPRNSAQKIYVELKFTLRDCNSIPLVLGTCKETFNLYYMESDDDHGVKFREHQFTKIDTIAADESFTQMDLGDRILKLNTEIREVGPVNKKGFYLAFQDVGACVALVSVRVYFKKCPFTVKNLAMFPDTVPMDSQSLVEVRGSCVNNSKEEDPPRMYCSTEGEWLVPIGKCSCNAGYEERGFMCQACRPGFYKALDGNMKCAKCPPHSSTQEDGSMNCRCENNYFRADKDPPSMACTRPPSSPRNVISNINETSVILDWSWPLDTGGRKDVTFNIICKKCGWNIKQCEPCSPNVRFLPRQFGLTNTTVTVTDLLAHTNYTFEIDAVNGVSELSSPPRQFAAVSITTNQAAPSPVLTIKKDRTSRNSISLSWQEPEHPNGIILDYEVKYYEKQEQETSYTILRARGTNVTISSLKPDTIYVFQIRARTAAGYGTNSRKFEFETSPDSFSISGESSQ

Human EphA7 Fc fusion = target: T3, Human EphA7 Fc fusion (Human, UniProt Q15375 28-555, limits assumed)
T3 construct: SPR; R&D Systems 6756-A7
T3 sequence (looked up): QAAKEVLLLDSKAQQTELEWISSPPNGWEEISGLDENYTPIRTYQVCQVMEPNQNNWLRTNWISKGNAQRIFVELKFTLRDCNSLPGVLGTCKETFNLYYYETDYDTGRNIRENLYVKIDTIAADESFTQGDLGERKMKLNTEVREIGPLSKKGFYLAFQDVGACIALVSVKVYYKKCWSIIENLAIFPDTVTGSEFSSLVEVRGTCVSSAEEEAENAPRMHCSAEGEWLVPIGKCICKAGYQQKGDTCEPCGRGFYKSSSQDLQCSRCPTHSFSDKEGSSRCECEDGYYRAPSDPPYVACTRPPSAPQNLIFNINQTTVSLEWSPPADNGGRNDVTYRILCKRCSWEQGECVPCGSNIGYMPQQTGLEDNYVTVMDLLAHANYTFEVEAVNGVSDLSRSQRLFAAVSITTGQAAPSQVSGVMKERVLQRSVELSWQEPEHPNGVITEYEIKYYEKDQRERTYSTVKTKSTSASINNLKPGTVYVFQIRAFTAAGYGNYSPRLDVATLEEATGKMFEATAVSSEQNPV

Rat EphB1 Fc fusion = target: T4, Rat EphB1 Fc fusion (Rat, UniProt P09759 18-540, limits assumed)
T4 construct: SPR; R&D Systems 1596-B1
T4 sequence (looked up): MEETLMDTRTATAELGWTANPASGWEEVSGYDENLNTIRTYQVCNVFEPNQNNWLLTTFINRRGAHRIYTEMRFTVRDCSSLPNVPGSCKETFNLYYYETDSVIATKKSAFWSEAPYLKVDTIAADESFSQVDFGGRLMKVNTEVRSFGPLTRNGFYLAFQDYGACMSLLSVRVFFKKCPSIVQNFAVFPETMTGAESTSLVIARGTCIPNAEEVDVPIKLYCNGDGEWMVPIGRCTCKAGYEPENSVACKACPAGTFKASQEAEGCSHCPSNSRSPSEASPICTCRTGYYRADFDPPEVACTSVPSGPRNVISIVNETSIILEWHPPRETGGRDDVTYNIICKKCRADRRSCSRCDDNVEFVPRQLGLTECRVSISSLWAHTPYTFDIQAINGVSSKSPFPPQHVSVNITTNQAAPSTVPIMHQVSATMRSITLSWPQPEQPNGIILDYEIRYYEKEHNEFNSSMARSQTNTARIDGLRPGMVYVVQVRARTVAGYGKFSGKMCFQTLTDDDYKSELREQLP

Rat EphA3 Fc fusion = target: T5, Rat EphA3 Fc fusion (Rat, UniProt O08680 21-541)
T5 construct: SPR; Sino Biologics 80465-R02H
T5 sequence (looked up): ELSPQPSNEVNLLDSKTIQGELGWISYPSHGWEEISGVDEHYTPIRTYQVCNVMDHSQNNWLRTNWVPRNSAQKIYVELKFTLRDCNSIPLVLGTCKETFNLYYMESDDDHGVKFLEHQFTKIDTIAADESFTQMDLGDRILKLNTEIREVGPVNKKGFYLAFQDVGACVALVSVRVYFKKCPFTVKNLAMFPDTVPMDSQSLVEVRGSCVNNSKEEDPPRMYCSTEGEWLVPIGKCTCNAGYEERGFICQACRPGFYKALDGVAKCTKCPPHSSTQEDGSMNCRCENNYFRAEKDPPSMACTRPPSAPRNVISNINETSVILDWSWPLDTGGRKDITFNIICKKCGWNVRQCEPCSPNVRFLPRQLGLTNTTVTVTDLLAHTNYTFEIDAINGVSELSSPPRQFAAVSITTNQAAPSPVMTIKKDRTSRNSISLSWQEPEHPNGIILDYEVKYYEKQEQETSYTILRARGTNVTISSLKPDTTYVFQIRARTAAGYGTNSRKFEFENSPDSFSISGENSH

Measured: binding result

B1: BCY6033 (peptide)
peptide: AXDCPLVNPLCLHPGWTC
modifications: not fully specified; as BCY6014 (N-terminal (β-Ala)-Sar10; HArg; TATA scaffold on the 3 Cys) + ValCit-MMAE
notes: Bicycle drug conjugate (BDC)
no binding: Human EphA6 Fc fusion | Human EphA3 Fc fusion | Human EphA7 Fc fusion | Rat EphB1 Fc fusion | Rat EphA3 Fc fusion

B2: BCY6082 (peptide)
peptide: AXDCPLVNPLCLHPGWTC
modifications: not fully specified; as BCY6014 (N-terminal (β-Ala)-Sar10; HArg; TATA scaffold on the 3 Cys) + DM1-SS(SO3H)-
notes: Bicycle drug conjugate (BDC)
no binding: Human EphA6 Fc fusion | Human EphA3 Fc fusion | Human EphA7 Fc fusion | Rat EphB1 Fc fusion | Rat EphA3 Fc fusion
